Common to all, as to assay: IEDB peptide-MHC binding, purified MHC/competitive/radioactivity; filed as Kd, often an IC50 or EC50 that approximates it; ≥ and ≤ were set here for values at or beyond the usual limits of such assays
Test [1] deals with HLA-A*02:01. The settings on record: source organism: Vaccinia virus WR.
In test [2] the target is HLA-A*02:02. The settings on record: source organism: Vaccinia virus WR.
Test [3] has as its target HLA-A*02:03. The settings on record: source organism: Vaccinia virus WR.
In test [4] the target is HLA-A*02:06. The settings on record: source organism: Vaccinia virus WR.
The target in test [5] is HLA-A*03:01.
The target in test [6] is HLA-A*11:01.
The target of test [7] is HLA-A*31:01.
Test [8] has as its target HLA-A*33:01.
For test [9], the target named is HLA-A*68:01.
Test [10] addresses HLA-A*68:02. The settings on record: source organism: Vaccinia virus WR.
In test [11] the target is HLA-B*07:02.
For test [12], the target named is HLA-B*35:01.
The target in test [13] is HLA-B*51:01.
The target of test [14] is HLA-B*53:01.
Test [15] has as its target HLA-B*54:01.
Setting [16] is: source organism: Vaccinia virus WR.
The mark [17] stands for this setting: source organism: Triticum aestivum.
Where [18] appears, read: source organism: Mammarenavirus machupoense.
[19] abbreviates: source organism: Vaccinia virus Copenhagen.
Setting [20] is: source organism: Mammarenavirus guanaritoense.
Where [21] appears, read: source organism: SARS coronavirus Tor2.

pKd: −log10 of the molar value.

One may read the pKd as −log10 of the Kd, conventionally taken in molar units.

Regarding TFFSYLMKDK, the pKd is at most 4.16 in test [1]; at most 4.30 in test [2]; at most 4.15 in test [3]; at most 4.16 in test [4]; 5.80 in test [5] (setting [16]); 7.89 in test [6] (setting [16]). Further, the pKd was 6.25 in test [7] (setting [16]); 5.57 in [8] (setting [16]); 7.02 in test [9] (setting [16]); at most 4.16 in test [10]; 4.79 in test [11] (setting [16]); at most 4.16 in [12] (setting [16]). Also, the pKd in [13] (setting [16]) was at most 4.16; in test [14] (setting [16]), at most 4.62; in [15] (setting [16]), at most 4.16.
In the case of KPDHDGNTPL, the pKd was 7.51 in test [11] (setting [16]); 5.48 in test [12] (setting [16]); at most 4.16 in test [13] (setting [16]); 5.15 in test [14] (setting [16]); at most 4.39 in [15] (setting [16]).
QPYLQLQPF: the pKd is 6.83 in test [11] (setting [17]); 8.21 in test [12] (setting [17]); 7.00 in test [13] (setting [17]); 6.32 in test [14] (setting [17]); 4.96 in test [15] (setting [17]).
On to LPNVDLTTM, for which the pKd was 7.26 in test [11] (setting [16]); 9.80 in [12] (setting [16]); 7.21 in test [13] (setting [16]); 9.65 in test [14] (setting [16]); 6.14 in test [15] (setting [16]).
With VPINVAEAY, the pKd in test [11] (setting [18]) is 4.86; in test [12] (setting [18]), 8.20; in test [13] (setting [18]) it was at most 4.24; in [14] (setting [18]) it was 6.69; in test [15] (setting [18]), at most 4.30.
Take SPAHLINKLL: the pKd was 7.58 in test [11] (setting [16]); at most 4.29 in test [12] (setting [16]); 5.27 in test [13] (setting [16]); 5.16 in test [14] (setting [16]); 5.53 in test [15] (setting [16]).
For the sequence LMIFISSFLL, the pKd was 8.53 in test [2]; 7.10 in test [3]; 7.12 in test [4]; 6.38 in test [5] (setting [16]); 5.92 in test [6] (setting [16]); 6.55 in test [7] (setting [16]). Also, the pKd in test [8] (setting [16]) was 6.15; in [9] (setting [16]), 6.55; in test [10], 7.13; in test [11] (setting [16]), at most 4.57; in test [12] (setting [16]) it was at most 4.68; in test [13] (setting [16]) it was 5.80. Moreover, the pKd in [14] (setting [16]) was 6.01; in test [15] (setting [16]) it was 5.49.
On to IPEQSRCQAI, for which the pKd in test [11] (setting [17]) was 7.84; in [12] (setting [17]), 6.28; in test [13] (setting [17]), 6.61; in test [14] (setting [17]), 6.28; in test [15] (setting [17]), at most 4.49.
For the sequence KPKPAVRYAI, the pKd is 8.33 in test [11] (source organism: Variola virus); at most 4.16 in test [12] (source organism: Variola virus); at most 4.16 in [13] (source organism: Variola virus); at most 4.16 in test [14] (source organism: Variola virus); 4.90 in test [15] (source organism: Variola virus).
As for FILGIIITV, the pKd in test [5] (setting [19]) is 5.82; in test [6] (setting [19]), 4.71; in test [7] (setting [19]), 5.93; in test [8] (setting [19]), 5.35; in test [9] (setting [19]) it was 5.49; in test [11] (setting [19]) it was at most 4.49. The negative-log Kd (pKd) in [12] (setting [19]) was at most 4.40; in test [13] (setting [19]), at most 4.16; in test [14] (setting [19]), 5.26; in [15] (setting [19]), 5.48.
In the case of CPMCCSKIL, the pKd in test [11] (setting [20]) was 7.66; in test [12] (setting [20]), 7.74; in test [13] (setting [20]) it was 6.74; in test [14] (setting [20]) it was 7.20; in test [15] (setting [20]) it was 6.81.
Take NPDQNTFPNI: the pKd in test [11] (setting [16]) was at most 4.16; in test [12] (setting [16]), at most 4.16; in [13] (setting [16]) it was at most 4.47; in test [14] (setting [16]), 5.43; in test [15] (setting [16]) it was at most 4.16.
With VPTNDHIPVV, the pKd in test [11] (setting [16]) was 6.77; in test [12] (setting [16]), 4.97; in [13] (setting [16]) it was 7.29; in test [14] (setting [16]), 4.92; in test [15] (setting [16]) it was 9.18.
Take RPPLNRNYV: the pKd in [11] (setting [21]) was 7.21; in [12] (setting [21]), at most 4.67; in [13] (setting [21]) it was 4.99; in test [14] (setting [21]), at most 4.11; in test [15] (setting [21]), 6.18.

Values taken from the Immune Epitope Database (IEDB).
